In patent publication US20190062422A1 (MorphoSys, published 2019):

B1: mouse IL17C (ligand, UniProt Q8K4C5 17-194, looked up)
chain: DPPSWGKPRSHRTLRCYSAEELSHGQAPPHLLTRSARWEQALPVALVASLEATGHRRQHEGPLAGTQCPVLRPEEVLEADTHERSISPWRYRIDTDENRYPQKLAVAECLCRGCINAKTGRETAALNSVQLLQSLLVLRRQPCSRDGTADPTPGSFAFHTEFIRVPVGCTCVLPRSTQ
modifications: biotinylated in the receptor interaction, inhibition and serum stability assays (sites not given)
notes: Bought recombinant protein; About 22 kDa reduced and about 40 kDa non-reduced on SDS-PAGE; Used plain (coated, ELISA) or biotinylated; also called biotinylated mouse IL17C; biotin-IL17C

Key:
mouse IL-17RB = biological target: T1, mouse IL-17RB (mouse, UniProt Q9JIP3 18-286); assay: MSD receptor interaction assay, coated receptor, biotinylated mouse IL17C, streptavidin detection
T1 construct: extracellular domain; also called IL17 receptor B
T1 sequence (looked up): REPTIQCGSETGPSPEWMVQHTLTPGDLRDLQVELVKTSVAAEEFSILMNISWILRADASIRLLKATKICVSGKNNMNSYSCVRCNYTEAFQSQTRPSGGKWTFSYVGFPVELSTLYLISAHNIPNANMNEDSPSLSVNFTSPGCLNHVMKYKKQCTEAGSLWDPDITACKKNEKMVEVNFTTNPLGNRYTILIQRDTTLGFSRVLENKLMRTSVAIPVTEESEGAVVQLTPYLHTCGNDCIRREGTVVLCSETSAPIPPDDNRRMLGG
Protocol: To test binding of mouse IL17 to its putative receptor, IL17 receptor E an interaction assay was set up. The assay setup is depicted in FIG. 1A. In brief, IL17 receptors B and E were coated on a Multi-array® 384-well plate Standard plate (Meso Scale Discovery; #L21XA-4) and biotinylated mouse IL17C was added. Binding of mouse IL17C to its receptor was measured via binding of Streptavidin in a MSD Sector Imager 6000 (Meso Scale Discovery, Gaithersburg, Md., USA).

mouse IL17C [1] = biological target: B1; assay: ELISA on biotin-IL17C captured on avidin: chimeric IgG2a incubated 24 h at 37°C in mouse serum against freshly diluted IgG2a
Protocol: 96 well Maxisorp plates (Nunc; #442404) were coated with avidin at a concentration of 1 μg/ml in PBS overnight at 4° C. The next day, anti-IL17 chimeric IgG2a were incubated in mouse serum for 24 h at 37° C. at a final concentration 100 μg/mL. After the incubation step the antibodies were diluted 1:100 in LowCross buffer (Candor Bioscience; #100500). As a reference the same set of antibodies were freshly diluted in LowCross buffer+1% mouse serum and incubated for 30 min at RT. Avidin coated plates were incubated with blocking buffer (Superblock blocking buffer from Pierce, #37515) and subsequently 100 μL of 0.1 μg/mL biotin-IL17C in LowCross buffer was added to blocked wells. After a washing step a serial dilution of the serum-incubated and freshly diluted IgGs was added. Binding of IgGs was detected by anti-mouse-IgG2a POD conjugated detection antibody (diluted 1:5000 in LowCross buffer) using TMB One Component HRP as substrate. The reaction was stopped by adding 1M HCl and absorbance was measured at 450 nm.

mouse IL17C [2] = biological target: B1; assay: solution equilibrium titration (SET), ECL based, monovalent Fab fragment (Fab_FH format)
Protocol: Monovalent affinities of anti-IL17C antibodies were determined by solution equilibrium titration (SET) using Fab fragments. Affinity determination in solution was basically performed as described in the literature (Friquet et al., (1985) J. Immunol. Meth. 77: 305-19). In order to improve the sensitivity and accuracy of the SET method, it was transferred from classical ELISA to ECL based technology (Haenel et al. (2005) Anal Biochem. 339.1: 182-84). Binders were expressed and purified in Fab_FH format.

mouse IL-17B [3] = biological target: T2, mouse IL-17B (mouse, UniProt Q9QXT6 23-180, limits assumed); assay: ELISA, purified chimeric human/mouse IgG2a on msIL-17B
T2 sequence (looked up): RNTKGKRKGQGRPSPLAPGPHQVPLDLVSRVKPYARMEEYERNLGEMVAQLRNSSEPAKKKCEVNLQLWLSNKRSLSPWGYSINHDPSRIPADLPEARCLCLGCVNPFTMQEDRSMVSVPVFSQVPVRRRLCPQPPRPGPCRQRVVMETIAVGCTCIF

mouse IL17C [4] = biological target: B1; assay: mIL17C - mIL-17RE inhibition assay (MSD): human/mouse IgG2a pre-incubated with biotinylated mouse IL17C, binding to coated mouse IL17RE/Fc detected by Streptavidin-ECL
Protocol: To determine inhibitory activity of purified anti-IL17C human-mouse chimeric IgG2a in a mIL-17 RE interaction assay, Maxisorp™ 384 well MSD plates were coated with 30 μL mouse IL17RE/Fc at 75 ng/mL in PBS at 4° C. overnight. The next day 25 μL of a serial antibody dilution (concentrations from 0.001 to 100 nM) were pre-incubated for 30 min at RT with an equal volume of biotinylated mouse IL17C at 0.125 nM. After blocking of plates for 1 h with 2.5% BSA in PBST, preformed antibody-ligand complexes were added for 1 h to coated IL17RE/Fc and receptor binding was detected via Streptavidin-ECL using MSD Sector Imager.
To characterize the antibodies in human/mouse IgG2a format in more detail, for each candidate IC₅₀ values were determined in the IL-17 receptor E inhibition assay as described herein above in up to 4 independent experiments.

human IL17C [5] = biological target: T3, human IL17C (human, UniProt Q9P0M4 19-197); assay: ELISA, purified chimeric human/mouse IgG2a on huIL-17C
T3 sequence: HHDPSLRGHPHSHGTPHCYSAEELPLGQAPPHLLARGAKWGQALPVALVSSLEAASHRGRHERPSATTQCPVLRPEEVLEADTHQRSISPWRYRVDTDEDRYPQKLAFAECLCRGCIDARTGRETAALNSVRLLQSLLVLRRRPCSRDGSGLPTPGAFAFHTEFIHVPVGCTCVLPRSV

mouse IL17C [6] = biological target: B1; assay: ELISA, purified chimeric human/mouse IgG2a titrated on mouse IL17C, n=1-2
Protocol: All purified chimeric human-mouse chimeric IgG2a antibodies were titrated on mouse IL17C for EC₅₀ determination in ELISA starting with a concentration of 100 nM. EC₅₀ values on mouse IL17C were determined in 1 to 3 independent experiments.

human IL17C [7] = biological target: T3, human IL17C; assay: ELISA, purified chimeric IgG2a
mouse IL-17B [8] = biological target: T2, mouse IL-17B; assay: ELISA, purified chimeric IgG2a

Binder | binding result (mouse IL-17RB) | Coefficient of variation (Mouse Serum Stability Assay 24h/37°C) (mouse IL17C [1]) [%] | Kd (mouse IL17C [2]) [nM] | binding result (mouse IL-17B [3]) | IC50 (mouse IL17C [4]) [nM] | binding result (human IL17C [5]) | EC50 (mouse IL17C [6]) [nM] | binding result (human IL17C [7]) | binding result (mouse IL-17B [8])
B1 | no binding | – | – | – | – | – | – | – | –
MOR12754 (antibody, V domains shown, Tested as human-mouse chimeric IgG2a (human variable, mouse constant regions); Potential N-linked glycosylation sites were removed by site-directed mutagenesis) VH: EVQLLESGGGLVQPGGSLRLSCAASGFTFSDYAMTWVRQAPGKGLEWVSVISYDGSLTYYADSVKGRFTISRDNSKNTLYLQMNSLRAEDTAVYYCARDPGVWWLSYLDYWGQGTLVTVSS VL: DIQMTQSPSSLSASVGDRVTITCRASQDIISYLAWYQQKPGKAPKLLIYGASNLQGGVPSRFSGSGSGTDFTLTISSLQPEDFAVYYCQQYMIAPPNTFGQGTKVEIKR | – | 17 | 4.1 | no binding | 8.44 | no binding | 0.4 | – | –
MOR12744 (antibody, V domains shown, Tested as human-mouse chimeric IgG2a (human variable, mouse constant regions); Potential N-linked glycosylation sites were removed by site-directed mutagenesis) VH: QVQLVQSGAEVKKPGASVKVSCKASGYTFTSNFIHWVRQAPGQGLEWMGWISPYNGDTNYAQKFQGRVTMTRDTSISTAYMELSRLRSEDTAVYYCARESVYYGSDYGYNGMDIWGQGTLVTVSS VL: DIELTQPPSVSVSPGQTASITCSGDNLGEEYVSWYQQKPGQAPVLVIYDDTKRPSGIPERFSGSNSGNTATLTISGTQAEDEADYYCASWAFYSSQVFGGGTKLTVLG | – | 11.8 | 0.053 | no binding | 0.012 | no binding | 0.28 | – | –
MOR12746 (antibody, V domains shown, Tested as human-mouse chimeric IgG2a (human variable, mouse constant regions); Potential N-linked glycosylation sites were removed by site-directed mutagenesis) VH: QVQLVQSGAEVKKPGASVKVSCKASGYTFTSNFIHWVRQAPGQGLEWMGWISPYNGDTNYAQKFQGRVTMTRDTSISTAYMELSRLRSEDTAVYYCARESVYYGSDYGYNGMDIWGQGTLVTVSS VL: DIELTQPPSVSVSPGQTASITCSGDNLGEEYVSWYQQKPGQAPVLVIYDDTKRPSGIPERFSGSNSGNTATLTISGTQAEDEADYYCSSWTHFSNIVFGGGTKLTVLG | – | 7.36 | 0.056 | no binding | 0.023 | no binding | 0.38 | – | –
MOR12745 (antibody, V domains shown, Tested as human-mouse chimeric IgG2a (human variable, mouse constant regions); Potential N-linked glycosylation sites were removed by site-directed mutagenesis) VH: QVQLVQSGAEVKKPGASVKVSCKASGYTFTSNFIHWVRQAPGQGLEWMGWISPYNGDTNYAQKFQGRVTMTRDTSISTAYMELSRLRSEDTAVYYCARESVYYGSDYGYNGMDIWGQGTLVTVSS VL: DIELTQPPSVSVSPGQTASITCSGDNLGEEYVSWYQQKPGQAPVLVIYDDTKRPSGIPERFSGSNSGNTATLTISGTQAEDEADYYCSAWATWSVAVFGGGTKLTVLG | – | 15.9 | 0.075 | no binding | 0.013 | no binding | 0.4 | – | –
MOR12753 (antibody, V domains shown, Tested as human-mouse chimeric IgG2a (human variable, mouse constant regions); Potential N-linked glycosylation sites were removed by site-directed mutagenesis) VH: QVQLQQSGPGLVKPSQTLSLTCAISGDSVSSSSAAWNWIRQSPSRGLEWLGRIEYRSKWYNDYAVSVKSRITINPDTSKNQFSLQLNSVTPEDTAVYYCAREMYYYSGYGVFDVWGQGTLVTVSS VL: DIELTQPPSVSVSPGQTASITCSGDALGGEYVHWYQQKPGQAPVLVIYDDDKRPSGIPERFSGSNSGNTATLTISGTQAEDEADYYCSSFDTWTSYVFGGGTKLTVLG | – | – | 0.062 | – | – | – | – | no binding | no binding
MOR12742 (antibody, V domains shown, Tested as human-mouse chimeric IgG2a (human variable, mouse constant regions); Potential N-linked glycosylation sites were removed by site-directed mutagenesis) VH: QVQLVQSGAEVKKPGSSVKVSCKASGGTFSSYGISWVRQAPGQGLEWMGRIIPIFGTAYYAQKFQGRVTITADESTSTAYMELSSLRSEDTAVYYCARDMRYHDYWPYYYGSDQFDVWGQGTLVTVSS VL: DIVLTQPPSVSGAPGQRVTISCSGSSSNIGSDIVSWYQQLPGTAPKLLIYYNNLRPSGVPDRFSGSKSGTSASLAITGLQAEDEADYYCQSWDWASLAMVFGGGTKLTVLG | – | – | – | – | – | – | – | no binding | no binding
